The values that follow come from patent publication US20250019448A1 (BIOCOMPLETE, published 2025).

The target of this experiment is T1, SMO (smoothened) protein (Homo sapiens (Human), UniProt Q99835 28-787).
T1 construct: Endogenous SMO on HCT116 and SKOV3 cancer cells; also called SMO in HCT116 cells; SMO receptor
The experiment is described as follows: flow cytometry on HCT116 cells, 10 µg antibody, Alexa 594 secondary antibody. How it is done:
The binding affinity of the SMO-binding antibodies in HCT116 colon cancer cells was analyzed by flow cytometry. After blocking the HCT116 cells with BSA for 30 minutes, 10 μg of the SMO-binding antibody was bound and incubated for 1 hour at room temperature. One hour later, the cells were washed with PBS, reacted with 2 μL of Alexa 594 secondary antibody, and then incubated for 1 hour at room temperature. One hour later, the cells were washed with PBS to remove non-specific binding, and the binding ability of the SMO-binding antibodies was analyzed by flow cytometry.
(A flow cytometer gives signals particle by particle.)

B1: #47 antibody (IgG form) (antibody, V domains shown)
VH: QVQLVQSGGGVVQPGSSLRLSCEASGFAIGDNALNWVRQAPGKGLEWVGYIRSNSYGGTAEYAASVKGRFTISKDESKNIAYLEMNSLRAEDTAVYYCARRAHYYDGSTYNPSWYFDLWGRGTLVTVSS
VL: EIVLTQSPSFLSASVGDRVTITCRASQDISRRLAWYQQKPGKAPKLLIYGASNLASGVPSRFTGSGSGTEFTLTISSLQPDDFATYYCQQGYSSPRTFGQGTKVDIK
Take B1: the binding result is on record as “binds”.

B2: #40 antibody (IgG form) (antibody, V domains shown)
VH: QVQLVQSGGGVVQPGSSLRLSCEASGFAIGDNALNWVRQAPGKGLEWVGYIRSNSYGGTAEYAASVKGRFTISRDESKNIAYLEMNSLRAEDTAVYYCARRAHYYGGSTYNPSWYFDLWGRGTPVTVSS
VL: EIVLTQSPSFLSASVGDRVTITCRASQDISRRLAWYQRKPGKAPKLLIYGASNLASGVPSRFTGSGSGTEFTLTISSLQSDDFATYYCQQGYSSPRTFGQGTKVDIK
B2: the binding result is given as “binds”.

B3: #42 antibody (IgG form) (antibody, V domains shown)
VH: QVRLVQSGAEVKKPGASVKVSCRASGYTFASYDIHWVRQAPGQGPEWMGMINPAGGSTLYAEGFEGRLTMTRDRSMSTAYMELSSLRSEDTAVYYCARTPSQTYELDYWGQGTLVTVSS
VL: ETTLTQSPSSLSASVGDRVTITCRASQGIRNDLAWYQQKPGKAPKLLIYAASTLESGVPPRFSGSGSETDFTLTLIRLQPDDFATYYCLQSFSTPYTFGQGTQLTVL
B3: the binding result is recorded as “binds”.
